Measurements: US20110015139A1 (HE HENRY M JACKSON FOUNDATION FOR THE ADVANCEMENT OF …, published 2011)

Target: amyloid beta (Aβ) peptide, incorporated in membranes as the Aβ channel
Assay: cell-based or functional assay

SGYEVHH [NA4]
EC50 of protection of PC12 cells from Aβ cytotoxicity (LDH release), as a multiple of the EC50 of NAHIS04: 2 to 3 times

EVHHQKL [NA7]
EC50 of protection of PC12 cells from Aβ cytotoxicity (LDH release), as a multiple of the EC50 of NAHIS04: 2 to 3 times

Ac-HHHH-NH2 [NAHIS04 (Ac-His-His-His-His-CONH2)]
concentration required for 50% protection (EC50) of PC12 cells from Aβ cytotoxicity, LDH release assay, 3 days: < 1000 nM | speed of 50% reduction of the flow of ionic charges, relative to NAHIS02: 8 fold
